Experimental data: US6790610B2, “Alzheimer's disease, secretase, APP substrates therefor, and uses therefor” (Pharmacia & Upjohn Company, priority 1998, dated 2004)
Where a SMILES comes first, the peptide text is derived from it. [ ]: non-standard residue; d: D form. The star is where a group is joined. Sta = CC(C)C[C@H](N)[C@@H](O)CC(=O)O; Isovaleryl = CC(C)CC(=O)*

What was measured:
[1] = biological target: T1, Recombinant human Asp2(a) (Homo sapiens, UniProt P56817); assay: β-Secretase assay with synthetic peptide substrates (RP-HPLC); format: biochemical
T1 construct: made in house; β-octylglucoside membrane extract purified over Mono Q and Mono S
Protocol: Recombinant human Asp2(a) prepared in CHO cells and purified as described in Example 11 was used to assay Asp2(a) proteolytic activity directly. Activity assays for Asp2(a) were performed using synthetic peptide substrates containing either the wild-type APP β-secretase site (SEVKM ↓DAEFR; SEQ ID NO: 64), the Swedish KM→NL mutation (SEVNL↓DAEFR; SEQ ID NO: 63), or the Aβ40 and 42 γ-secretase sites (RRGGVV↓IA↓TVIVGER; SEQ ID NO: 65). Reactions were performed in 50 mM 2-[N-morpholino]ethane-sulfonate (“Na-MES,” pH 5.5) containing 1% β-octylglucoside, […] peptide substrate, and recombinant Asp2(a) (1-5 μg protein) for various times at 37° C. The reaction products were quantified by RP-HPLC using a linear gradient from 0-70 B over 30 minutes (A=0.1% TFA in water, B=0.1% TFA/10% water/90% AcCN). The elution profile was monitored by absorbance at 214 nm. […] Percent hydrolysis of the peptide substrate was calculated by comparing the integrated peak areas for the two product peptides and the starting material derived from the absorbance at 214 nm. […]
The specificity of the protease cleavage reaction was determined by performing the β-secretase assay in the presence of 8 μM pepstatin A and the presence of a cocktail of protease inhibitors (10 μM leupeptin, 10 μM E64, and 5 mM EDTA). […]

[2] = biological target: T2, Hu-Asp2(b) (Homo sapiens, UniProt P56817); assay: β-Secretase proteolysis assay with Hu-Asp2(b); format: biochemical; conditions: identical assay conditions to Asp2(a)
T2 construct: made in house; host or cells: CHO-K1 transfected with pcDNA3.1(+)Hygro/Hu-Asp2(b); β-octylglucoside extract purified over Mono Q and Mono S
Protocol: Recombinant human Asp2(a) prepared in CHO cells and purified as described in Example 11 was used to assay Asp2(a) proteolytic activity directly. Activity assays for Asp2(a) were performed using synthetic peptide substrates containing either the wild-type APP β-secretase site (SEVKM ↓DAEFR; SEQ ID NO: 64), the Swedish KM→NL mutation (SEVNL↓DAEFR; SEQ ID NO: 63), or the Aβ40 and 42 γ-secretase sites (RRGGVV↓IA↓TVIVGER; SEQ ID NO: 65). Reactions were performed in 50 mM 2-[N-morpholino]ethane-sulfonate (“Na-MES,” pH 5.5) containing 1% β-octylglucoside, […] peptide substrate, and recombinant Asp2(a) (1-5 μg protein) for various times at 37° C. The reaction products were quantified by RP-HPLC using a linear gradient from 0-70 B over 30 minutes (A=0.1% TFA in water, B=0.1% TFA/10% water/90% AcCN). The elution profile was monitored by absorbance at 214 nm. In preliminary experiments, the two product peaks which eluted before the intact peptide substrate, were confirmed to have the sequence DAEFR (SEQ ID NO: 72)and SEVNL (SEQ.ID NO: 73) using both Edman sequencing and MADLI-TOF mass spectrometry. Percent hydrolysis of the peptide substrate was calculated by comparing the integrated peak areas for the two product peptides and the starting material derived from the absorbance at 214 nm. […]

T1 sequence (P56817 46-501): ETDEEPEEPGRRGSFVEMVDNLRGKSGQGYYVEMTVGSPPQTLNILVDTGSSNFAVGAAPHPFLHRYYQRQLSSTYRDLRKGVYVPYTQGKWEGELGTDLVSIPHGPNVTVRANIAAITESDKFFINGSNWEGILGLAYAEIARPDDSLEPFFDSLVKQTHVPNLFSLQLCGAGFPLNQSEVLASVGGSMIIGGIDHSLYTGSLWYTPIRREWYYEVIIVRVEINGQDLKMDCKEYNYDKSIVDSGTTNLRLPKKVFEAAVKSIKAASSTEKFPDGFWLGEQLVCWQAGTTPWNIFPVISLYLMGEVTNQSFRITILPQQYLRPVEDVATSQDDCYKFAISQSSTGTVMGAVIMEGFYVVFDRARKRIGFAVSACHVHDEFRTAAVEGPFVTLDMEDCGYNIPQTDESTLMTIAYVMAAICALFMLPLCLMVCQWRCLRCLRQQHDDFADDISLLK
T2 sequence (P56817 46-476 isoform P56817-2): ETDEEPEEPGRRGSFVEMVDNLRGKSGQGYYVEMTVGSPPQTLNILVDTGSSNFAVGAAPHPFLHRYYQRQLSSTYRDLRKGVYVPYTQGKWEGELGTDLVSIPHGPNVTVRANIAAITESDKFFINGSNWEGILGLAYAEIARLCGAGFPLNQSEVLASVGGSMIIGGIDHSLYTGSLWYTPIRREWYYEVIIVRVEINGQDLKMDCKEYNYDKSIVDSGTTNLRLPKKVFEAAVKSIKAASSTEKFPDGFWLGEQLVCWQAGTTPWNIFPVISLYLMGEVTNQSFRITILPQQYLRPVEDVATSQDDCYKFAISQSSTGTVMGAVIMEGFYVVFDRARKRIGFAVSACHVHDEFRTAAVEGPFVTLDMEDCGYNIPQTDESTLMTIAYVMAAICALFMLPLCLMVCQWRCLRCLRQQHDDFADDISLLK

Row | Compound | sensitivity of proteolytic activity to inhibitor ([1]; 8 μM pepstatin A) | cleavage of peptide substrate [2] | proteolysis relative to wild type APP peptide ([1]; after 6 hours, pH 5.5, 37° C.)
1 | CC(C)CC(=O)N[C@H](C(=O)N[C@H](C(=O)N[C@@H](CC(C)C)[C@@H](O)CC(=O)N[C@@H](C)C(=O)N[C@@H](CC(C)C)[C@@H](O)CC(=O)O)C(C)C)C(C)C [pepstatin A] (Isovaleryl-VV[Sta]A[Sta]-OH) | insensitive |  | 
2 | SEVNLDAEFR (OTHER INFORMATION: Description of Artificial Sequence: synthetic) [Swedigh β-secretase peptide, synthetic peptide substrate containing the Swedish KM→NL mutation of the APP β-secretase site] |  | cleaves | about 10 fold
